From US20170267766A1

Assays:
[1] = biological target: rhIGF-1R protein (R&D Systems, Cat No 391-GR) (human) (UniProt P08069); assay: ELISA, coated rh IGF-1R, 5 ug/ml
[2] = biological target: rmIGF-1R protein (R&D Systems, cat No 6630-GR/Fc) (murine) (UniProt Q60751); assay: ELISA, coated rm IGF-1R, 5 ug/ml
[3] = biological target: rhIR protein (R&D Systems, cat No 1544-IR/CF) (human) (UniProt P06213); assay: ELISA, coated rh Insulin R, 5 ug/ml
rhIR protein (R&D Systems, cat No 1544-IR/CF) (human), sequence (P06213 other isoform, or with tags, fused parts or gaps limits assumed): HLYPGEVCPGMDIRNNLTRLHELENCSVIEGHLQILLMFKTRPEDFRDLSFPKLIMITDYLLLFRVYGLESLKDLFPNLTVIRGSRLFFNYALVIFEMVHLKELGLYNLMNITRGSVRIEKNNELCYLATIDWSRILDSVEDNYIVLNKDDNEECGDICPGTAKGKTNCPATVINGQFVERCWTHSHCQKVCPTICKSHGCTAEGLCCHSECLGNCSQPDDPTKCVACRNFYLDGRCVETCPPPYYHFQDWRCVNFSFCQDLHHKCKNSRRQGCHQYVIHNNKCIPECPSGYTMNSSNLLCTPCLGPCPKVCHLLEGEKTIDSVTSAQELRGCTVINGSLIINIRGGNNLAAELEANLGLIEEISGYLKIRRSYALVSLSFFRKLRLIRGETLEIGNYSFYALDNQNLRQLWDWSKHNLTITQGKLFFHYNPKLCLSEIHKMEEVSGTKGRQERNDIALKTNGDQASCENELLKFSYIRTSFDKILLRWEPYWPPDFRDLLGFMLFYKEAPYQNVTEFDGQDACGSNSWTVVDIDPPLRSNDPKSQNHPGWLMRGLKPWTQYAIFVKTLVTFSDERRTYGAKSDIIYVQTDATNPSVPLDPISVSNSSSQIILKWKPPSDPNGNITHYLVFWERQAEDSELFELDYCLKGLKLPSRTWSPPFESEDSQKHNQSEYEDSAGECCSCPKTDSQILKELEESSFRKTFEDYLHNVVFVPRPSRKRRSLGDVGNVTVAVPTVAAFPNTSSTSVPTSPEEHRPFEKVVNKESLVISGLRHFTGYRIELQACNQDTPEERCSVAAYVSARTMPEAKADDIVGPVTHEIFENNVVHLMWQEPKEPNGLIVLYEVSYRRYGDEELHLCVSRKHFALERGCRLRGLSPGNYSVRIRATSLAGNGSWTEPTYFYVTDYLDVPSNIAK

rmIGF-1R protein (R&D Systems, cat No 6630-GR/Fc) (murine), sequence (Q60751 31-936): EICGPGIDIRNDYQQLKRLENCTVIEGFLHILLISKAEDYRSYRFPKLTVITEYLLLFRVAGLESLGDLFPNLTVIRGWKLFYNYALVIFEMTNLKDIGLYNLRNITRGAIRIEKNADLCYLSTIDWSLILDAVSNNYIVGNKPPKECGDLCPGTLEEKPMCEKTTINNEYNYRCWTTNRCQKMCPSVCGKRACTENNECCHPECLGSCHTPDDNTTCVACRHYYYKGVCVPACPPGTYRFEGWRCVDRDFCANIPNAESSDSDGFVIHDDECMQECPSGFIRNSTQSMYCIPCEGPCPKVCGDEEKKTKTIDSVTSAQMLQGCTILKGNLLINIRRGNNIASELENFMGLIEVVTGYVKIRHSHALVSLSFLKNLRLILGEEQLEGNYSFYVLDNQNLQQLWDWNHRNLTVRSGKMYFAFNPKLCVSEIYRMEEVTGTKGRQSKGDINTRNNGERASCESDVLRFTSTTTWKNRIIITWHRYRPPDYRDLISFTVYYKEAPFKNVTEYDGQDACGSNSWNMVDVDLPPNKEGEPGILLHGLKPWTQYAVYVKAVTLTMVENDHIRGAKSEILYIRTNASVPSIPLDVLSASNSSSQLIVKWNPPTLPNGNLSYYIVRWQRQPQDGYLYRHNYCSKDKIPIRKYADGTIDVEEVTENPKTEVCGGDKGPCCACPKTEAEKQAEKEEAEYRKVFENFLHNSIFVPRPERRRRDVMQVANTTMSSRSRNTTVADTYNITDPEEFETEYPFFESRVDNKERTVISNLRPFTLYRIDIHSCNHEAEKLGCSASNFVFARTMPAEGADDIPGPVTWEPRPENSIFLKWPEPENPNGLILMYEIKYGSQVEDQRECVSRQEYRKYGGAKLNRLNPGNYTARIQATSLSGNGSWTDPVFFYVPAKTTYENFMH

D.O 450 nm [1]: 0.093 D.O 450 nm
D.O 450 nm [2]: 0.116 D.O 450 nm
D.O 450 nm [3]: 0.127 D.O 450 nm
Substance: mIgG1 (antibody)
